Data published in article PMC11035067.
Values belong to the substance of their own block, whether it stands above or below them.

Assays:
Test in all cases: SEC; gel filtration during purification, Superdex 200 increase 10/300 GL in gel-filtration buffer (Table S2), non-actinic dim green light; self-association (dimer)
[1] = target: Idiomarina species A28L phytochrome-activated diguanylate cyclase (IsPadC), wild type (Idiomarina sp. A28L)
[2] = target: IsPadC D199L (Idiomarina sp. A28L)
[3] = target: IsPadC D199N (Idiomarina sp. A28L)
[4] = target: IsPadC G449E (Idiomarina sp. A28L)
[5] = target: IsPadC H193L (Idiomarina sp. A28L)
[6] = target: IsPadC H193Q (Idiomarina sp. A28L)
[7] = target: IsPadC R467S (Idiomarina sp. A28L)

Substance: Idiomarina species A28L phytochrome-activated diguanylate cyclase (IsPadC), wild type (enzyme)
stoichiometry N [1]: 2

Substance: IsPadC D199N (enzyme)
stoichiometry N [3]: 2

Substance: IsPadC G449E (enzyme)
stoichiometry N [4]: 2

Substance: IsPadC H193Q (enzyme)
stoichiometry N [6]: 2

More lines, now with the values ahead:

stoichiometry N [2]: 2
Substance: IsPadC D199L (enzyme)

stoichiometry N [5]: 2
Substance: IsPadC H193L (enzyme)

stoichiometry N [7]: 2
Substance: IsPadC R467S (enzyme)
